Results on two substances are retold here after paper PMC5427286.

Experiment [1] addresses Hsp21^V181A, non-dodecameric mutational variant of Hsp21 (A. thaliana) (UniProt P31170). Put plainly: SEC-SAXS; online SEC-SAXS, Superdex 200 Increase 10/300, 50 mM HEPES pH 7.5, 100 mM NaCl, 0.1% Tween 20, 0.15 ml/min; retention times 80-84 min; EOM with a pool of dimers and hexamers.
For experiment [2], the target named is Hsp21 after limited proteolysis with trypsin (NTR degraded) (A. thaliana) (UniProt P31170). Put plainly: native gel or EMSA; non-denaturing PAGE of purified protein; also of samples withdrawn during 1-30 min of limited trypsin proteolysis. (In EMSA bound probe runs differently from free probe, usually more slowly.)

Values joined by “and” are separate entries in the source; they are usually repeats but may differ in a detail not shown here. Equal values may be shown once.

Sequence of Hsp21 after limited proteolysis with trypsin (NTR degraded) (P31170 44-227): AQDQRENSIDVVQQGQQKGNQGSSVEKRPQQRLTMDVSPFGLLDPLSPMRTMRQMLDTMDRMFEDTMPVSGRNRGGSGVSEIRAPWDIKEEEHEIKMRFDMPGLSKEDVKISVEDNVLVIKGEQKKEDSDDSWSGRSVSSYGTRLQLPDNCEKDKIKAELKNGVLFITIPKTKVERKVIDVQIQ

Take “Hsp21^V181A, non-dodecameric mutational variant of Hsp21 (from UniProt P31170 44-227) (natural protein)”: the stoichiometry N (usually a count of units in the complex or per binding partner) in experiment [1] was 2 and 6.
“Hsp21 after limited proteolysis with trypsin (NTR degraded) (from UniProt P31170 44-227) (domain or fragment)” came in with a stoichiometry N in experiment [2] of 12.
